Nine molecules from patent US6348317B1, “Fluorescent and DNA cleavage properties of peptide/dye conjugates” (The Arizona Board of Regents, priority 1999, dated 2002) can be followed below.

No end group written: not given here.

Series [1] relates to Hin recombinase consensus sequence (hixL) dsDNA. Nature of the series: Total fluorescence reverse titration of conjugate with nonlabeled consensus DNA. In kind it is binding, S. typhimurium. As to the method: Fluorescence Measurements. Steady state fluorescence anisotropy and total fluorescence measurements were performed as forward and reverse titrations, respectively, as described previously, M. Thompson, et al., supra, 2000. Forward titrations of the tetramethylrhodamine labeled DNA (TMR-DNA) with nonlabeled DNA-binding domains were performed at 10 nM TMR-DNA. Vertical excitation was at 542 nm with detection in the verticle and horizontal planes at 582 nm. Reverse titrations of 1 nM of the appropriate conjugate were titrated with nonlabeled DNA. Excitation and emission detection was at 480 nm and 510 nm for oxazole yellow and 510 nm and 535 nm for thiazole orange samples. Salt dependence studies were performed by titrating an appropriate amount of 1 M NaCl in the same Tris buffer to yield the indicated final salt concentration. Temperature dependence studies were performed by incubating each sample for 30 minutes at the given temperature. The temperature of the sample was held constant by pumping water through the cuvette holder from a temperature equilibrated water bath. Each titration was performed at least 3 times.
Determination of thermodynamic functions. The contribution of the hydrophobic effect and the polyelectrolyte effect to the stability of the conjugate or DNA-binding domain—DNA complex is assessed by analysis of the dependence of the observed association equilibrium constant Kobs for a range of temperatures and salt concentrations as in the following: [formula]
where, [P] eq is the concentration of the conjugate or DNA-binding domain, [D] eq is the concentration of DNA, and [PD] eq is the concentration of bound complex at equilibrium. The analysis is based on the assumption that this is a single-step bimolecular reaction.
Specific binding by the dye labeled peptides (conjugates). The binding affinity of the two dye labeled peptides comprising the Hin recombinase and Tc3 transposase DNA-binding domains conjugated to oxazole yellow and thiazole orange, respectively, were determined. In this case, the total fluorescence intensity can be used to determine the binding affinity by these systems. […] In addition, the bound and free populations of the conjugate, and therefore the dye, present at equilibrium have such an extreme increase in quantum yield (˜1000-5000-fold) that the total fluorescence from the system is a very sensitive and accurate way to monitor binding. Note that each oligonucleotide shown was hybridized to […] forming a dsDNA segment.
In FIG. 9, semi-log plot of the total fluorescence of I nM conjugate is plotted as the log of the concentration of nonlabeled DNA containing each respective consensus sequence. The solid lines represent a fit for the percent of the maximal fluorescence values at 298 K, 0.150 M Na+, (●),313 K, 0.150 M Na+ (t) and 298 K, 0.250 M Na+(▪). The binding constants (Kobs) determined from these curves and the corresponding binding free energies (DG°) are given in Table 1 for the range of salt concentrations (0.15 to 0.25 M Na+) and temperatures (275 to 313 K) investigated. The equilibrium constant decreases 7- and 10-fold for the TOTc3 and YOHin, respectively, when the salt concentration is increased from 0.15 to 0.25 M salt.

Series [2] concerns the target T1, TO-ZF (thiazole orange-GR zinc finger conjugate) (UniProt P06536 SEQ:1-28).
T1 chain: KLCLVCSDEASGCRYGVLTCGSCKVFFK
Put plainly: TO fluorescence titration; 20 mM Tris pH 7.9, 30 mM NaCl, 20 mM KCl, 1 mM MgCl2, 5% glycerol, ZnCl2. Conditions: protein: synthetic; tags: thiazole orange on Lys epsilon-amine (first residue coupled to resin); synthetic solid-phase peptide (text states 29 aa, listing 28 aa), Zn-loaded.

Series [3] addresses T1, TO-ZF (thiazole orange-GR zinc finger …). Put plainly: same as poly(dG)-poly(dC) within experimental error. Conditions: protein: synthetic; tags: thiazole orange on Lys epsilon-amine (first residue coupled to resin); synthetic solid-phase peptide (text states 29 aa, listing 28 aa), Zn-loaded.
The target is the same in series [4]. Nature of the series: TO fluorescence titration; same buffer. Conditions: protein: synthetic; tags: thiazole orange on Lys epsilon-amine (first residue coupled to resin); synthetic solid-phase peptide (text states 29 aa, listing 28 aa), Zn-loaded.
For series [5] the target is unchanged. Nature of the series: TO fluorescence titration; single base change in half-site. Conditions: protein: synthetic; tags: thiazole orange on Lys epsilon-amine (first residue coupled to resin); synthetic solid-phase peptide (text states 29 aa, listing 28 aa), Zn-loaded.
For series [6], the target named is T2, TOTc3 (thiazole orange-Tc3 transposase DNA-binding domain, residues 202-253) (UniProt P34257 SEQ:1-51).
T2 chain: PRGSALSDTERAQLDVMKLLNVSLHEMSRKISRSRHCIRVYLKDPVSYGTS
Put plainly: 298 K, 0.150 M Na+; 275 K 22e6, 293 K 66e6, 313 K 22e6; 298 K 0.250 M Na+ 17e6. Conditions: protein: synthetic; tags: thiazole orange covalently attached; synthetic solid-phase peptide (text states 52 aa, listing 51 aa).

Series [7] deals with T1, TO-ZF (thiazole orange-GR zinc finger …). Put plainly: TO fluorescence titration; two base changes vs GRE. The note with it: protein: synthetic; tags: thiazole orange on Lys epsilon-amine (first residue coupled to resin); synthetic solid-phase peptide (text states 29 aa, listing 28 aa), Zn-loaded.
Series [8] has the same target. Put plainly: TO fluorescence titration; single G to A change in half-site. The note with it: protein: synthetic; tags: thiazole orange on Lys epsilon-amine (first residue coupled to resin); synthetic solid-phase peptide (text states 29 aa, listing 28 aa), Zn-loaded.
Series [9] deals with T3, YOHin (oxazole yellow-Hin recombinase DNA-binding domain, residues 139-190) (UniProt P03013 SEQ:1-52).
T3 chain: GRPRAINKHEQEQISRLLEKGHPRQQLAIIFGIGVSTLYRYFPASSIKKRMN
Nature of the series: 298 K, 0.150 M Na+; 275 K 22e6, 293 K 143e6, 313 K 29e6; 298 K 0.250 M Na+ 14e6. Conditions: protein: synthetic; tags: oxazole yellow covalently attached; synthetic solid-phase peptide.

On to “YOHin: oxazole yellow conjugated to the 52 amino acid Hin DNA binding domain, residues 139-190 of Hin recombinase (GRPRAINKHEQEQISRLLEKGHPRQQLAIIFGIGVSTLYRYFPASRIKKRMN; also: oxazole yellow conjugated, site not given here; UniProt P03013 139-190, looked up, fragment)”, for which, in [1] (0.15 to 0.25 M salt), the “decrease of equilibrium constant when salt is increased from 0.15 to 0.25 M” value is listed as 10 fold. Besides, the Kobs in [1] (275 K, 0.150 M Na+) is 22 (M^−1) × 10^−6; in series [1] (278 K, 0.150 M Na+) it was 21 (M^−1) × 10^−6; in series [1] (283 K, 0.150 M Na+), 40 (M^−1) × 10^−6; in series [1] (288 K, 0.150 M Na+) it was 61 (M^−1) × 10^−6; in series [1] (293 K, 0.150 M Na+), 143 (M^−1) × 10^−6; in series [1] (298 K, 0.150 M Na+), 83 (M^−1) × 10^−6. Besides, the Kobs in series [1] (298 K, 0.175 M Na+) is 67 (M^−1) × 10^−6; in [1] (298 K, 0.200 M Na+), 37 (M^−1) × 10^−6; in series [1] (298 K, 0.225 M Na+), 29 (M^−1) × 10^−6; in series [1] (298 K, 0.250 M Na+) it was 14 (M^−1) × 10^−6; in [1] (303 K, 0.150 M Na+), 60 (M^−1) × 10^−6; in [1] (308 K, 0.150 M Na+), 41 (M^−1) × 10^−6. The Kobs in series [1] (313 K, 0.150 M Na+) is on record as 29 (M^−1) × 10^−6. Also, the “ΔG°” value in [1] (275 K, 0.150 M Na+) is -9.2 kcal/mol; in [1] (278 K, 0.150 M Na+), -9.3 kcal/mol; in series [1] (283 K, 0.150 M Na+) it was -9.8 kcal/mol; in series [1] (288 K, 0.150 M Na+), -10.3 kcal/mol; in series [1] (293 K, 0.150 M Na+), -10.9 kcal/mol; in [1] (298 K, 0.150 M Na+), -10.8 kcal/mol. In addition, the “ΔG°” value in series [1] (298 K, 0.175 M Na+) was -10.7 kcal/mol; in series [1] (298 K, 0.200 M Na+) it was -10.3 kcal/mol; in [1] (298 K, 0.225 M Na+) it was -10.2 kcal/mol; in [1] (298 K, 0.250 M Na+) it was -9.8 kcal/mol; in series [1] (303 K, 0.150 M Na+), -10.8 kcal/mol; in series [1] (308 K, 0.150 M Na+), -10.7 kcal/mol. Also, the “ΔG°” value in series [1] (313 K, 0.150 M Na+) was -10.7 kcal/mol.

B1: GRE1 (dsDNA)
DNA 1: TCATACCACTAACTGTTCTATCA
DNA 2: TGATAGAACAGTTAGTGGTATGA
One may read the Kd as the free concentration of one partner at which half of the binding sites on the other are occupied at equilibrium, for simple one-to-one binding. A higher Kd goes with a looser complex. B1 yielded a Kd in [2] of 25 nM.

B2: (dGdC)20 (dsDNA)
DNA 1: GCGCGCGCGCGCGCGCGCGCGCGCGCGCGCGCGCGCGCGC
DNA 2: GCGCGCGCGCGCGCGCGCGCGCGCGCGCGCGCGCGCGCGC
modifications: [none]
In the case of B2, the Kd in [3] was approximately 1100 nM.

B3: GRE2 (dsDNA)
DNA 1: TGATACGGCTGACTGTTCTATGA
DNA 2: TCATAGAACAGTCAGCCGTATCA
B3 yielded a Kd in series [4] of 25 nM.

B4: GRE4 (dsDNA)
DNA 1: TCATACATCTAACTGTCCTATCA
DNA 2: TGATAGGACAGTTAGATGTATGA
In the case of B4, the dissociation constant (Kd) in series [5] is 220 nM.

B5: Tc3 consensus oligonucleotide (dsDNA)
DNA 1: ATCGGCACGATGCTAGTTCTATAGGACCCCCC
DNA 2: GGGGGGTCCTATAGAACTAGCATCGTGCCGAT
For the molecule B5, in series [6], the Ka came out at 2.45e+08 M⁻¹.

B6: ERE (dsDNA)
DNA 1: TCATACATCTAACTGACCTATCA
DNA 2: TGATAGGTCAGTTAGATGTATGA
B6: in [7], the affinity, expressed as Kd, was 810 nM.

B7: GRE3 (dsDNA)
DNA 1: TCATACATCTAACTATTCTATCA
DNA 2: TGATAGAATAGTTAGATGTATGA
As to B7, in series [8], the dissociation constant Kd was found to be 57 nM.

B8: hixL (Hin consensus) oligonucleotide (dsDNA)
DNA 1: TCTTATCAAAAACACTATCGTCGCACGGCTAC
DNA 2: GTAGCCGTGCGACGATAGTGTTTTTGATAAGA
As to B8, the Ka in series [9] is 8.3e+07 M⁻¹.
